Experimental data: US20240392020A1 (JIANGSU HENGRUI PHARMACEUTICALS, published 2024)

B1: HJ-3 (bispecific antibody, human IgG1, kappa, L234A L235A)
heavy 1: not shown
light 1: DIQMTQSPSSVSASVGDRVTITCRASQDIANYLSWYQQKPGKSPKLLIYGTSNLEVGVPSRFSGSRSGTDFTLTISSLQPEDFATYYCLQDKEFPRTFGGGTKVEIKGGGGSSGAPRFLTRPLAFVVSVGKDATLSSQIVGNPTPQVSWEKDKQPVTAGARFRLAQDGDLYRLKILDLQLSDSGQYVSRARNAIGEAFACLGLQVDAEA
heavy 2: EVQLVQSGAEVKKPGSSVKVSCKASGYTFSNYLIEWVRQAPGQGLEWIGVIDPGVGDTNYNENFKGRATLTADKSTSTAYIELSSLRSEDTAVYYCAREDNTGTAFDYWGQGTTVTVSSASTKGPSVFPLAPSSKSTSGGTAALGCLVKDYFPEPVTVSWNSGALTSGVHTFPAVLQSSGLYSLSSVVTVPSSSLGTQTYICNVNHKPSNTKVDKKVEPKSCDKTHTCPPCPAPEAAGGPSVFLFPPKPKDTLMISRTPEVTCVVVDVSHEDPEVKFNWYVDGVEVHNAKTKPREEQYNSTYRVVSVLTVLHQDWLNGKEYKCKVSNKALPAPIEKTISKAKGQPREPQVCTLPPSREEMTKNQVSLSCAVKGFYPSDIAVEWESNGQPENNYKTTPPVLDSDGSFFLVSKLTVDKSRWQQGNVFSCSVMHEALHNHYTQKSLSLSPGKDYKDDDDK
light 2: SIVMTQTPLSLSVTPGQPASISCKASQSVSSDVTWYLQKPGQSPQLLIYYVSEHYTGVPDRFSGSGYGTDFTLKISRVEAEDVGVYYCQQHHRFPLTFGQGTKLEIKRTVAAPSVFIFPPSDEQLKSGTASVVCLLNNFYPREAKVQWKVDNALQSGNSQESVTEQDSKDSTYSLSSTLTLSKADYEKHKVYACEVTHQGLSSPVTKSFNRGEC
B2: HJ-8 (bispecific antibody, human IgG1, kappa, L234A L235A)
heavy 1: not shown
light 1: DIQMTQSPSSVSASVGDRVTITCRASQDIANYLSWYQQKPGKSPKLLIYGTSNLEVGVPSRFSGSRSGTDFTLTISSLQPEDFATYYCLQDKEFPRTFGGGTKVEIKRTVASSGAPRFLTRPKASVVSVGKDATLSSQIVGNPFPQVSWEKDKQPVTAGVRFRLAQDGDLYRLKILDLQLSDSGQYVSRARNAHGEAFACLGLQVDAEA
heavy 2: EVQLVQSGAEVKKPGSSVKVSCKASGYTFSNYLIEWVRQAPGQGLEWIGVIDPGVGDTNYNENFKGRATLTADKSTSTAYIELSSLRSEDTAVYYCAREDNTGTAFDYWGQGTTVTVSSASTKGPSVFPLAPSSKSTSGGTAALGCLVKDYFPEPVTVSWNSGALTSGVHTFPAVLQSSGLYSLSSVVTVPSSSLGTQTYICNVNHKPSNTKVDKKVEPKSCDKTHTCPPCPAPEAAGGPSVFLFPPKPKDTLMISRTPEVTCVVVDVSHEDPEVKFNWYVDGVEVHNAKTKPREEQYNSTYRVVSVLTVLHQDWLNGKEYKCKVSNKALPAPIEKTISKAKGQPREPQVCTLPPSREEMTKNQVSLSCAVKGFYPSDIAVEWESNGQPENNYKTTPPVLDSDGSFFLVSKLTVDKSRWQQGNVFSCSVMHEALHNHYTQKSLSLSPGK
light 2: SIVMTQTPLSLSVTPGQPASISCKASQSVSSDVTWYLQKPGQSPQLLIYYVSEHYTGVPDRFSGSGYGTDFTLKISRVEAEDVGVYYCQQHHRFPLTFGQGTKLEIKRTVAAPSVFIFPPSDEQLKSGTASVVCLLNNFYPREAKVQWKVDNALQSGNSQESVTEQDSKDSTYSLSSTLTLSKADYEKHKVYACEVTHQGLSSPVTKSFNRGEC
B3: HJ-6 (bispecific antibody, human IgG1, kappa, L234A L235A)
heavy 1: not shown
light 1: DIQMTQSPSSVSASVGDRVTITCRASQDIANYLSWYQQKPGKSPKLLIYGTSNLEVGVPSRFSGSRSGTDFTLTISSLQPEDFATYYCLQDKEFPRTFGGGTKVEIKGGGGSSGAPRFLTCPKASVVSVGKDATLSSQIVGNPFPQVSWEKDKQPVTAGVRFRLAQDGDLYRLKILDLQLSDSGQYVSRARNAHGEAFACLGLQVDAEA
heavy 2: EVQLVQSGAEVKKPGSSVKVSCKASGYTFSNYLIEWVRQAPGQGLEWIGVIDPGVGDTNYNENFKGRATLTADKSTSTAYIELSSLRSEDTAVYYCAREDNTGTAFDYWGQGTTVTVSSASTKGPSVFPLAPSSKSTSGGTAALGCLVKDYFPEPVTVSWNSGALTSGVHTFPAVLQSSGLYSLSSVVTVPSSSLGTQTYICNVNHKPSNTKVDKKVEPKSCDKTHTCPPCPAPEAAGGPSVFLFPPKPKDTLMISRTPEVTCVVVDVSHEDPEVKFNWYVDGVEVHNAKTKPREEQYNSTYRVVSVLTVLHQDWLNGKEYKCKVSNKALPAPIEKTISKAKGQPREPQVCTLPPSREEMTKNQVSLSCAVKGFYPSDIAVEWESNGQPENNYKTTPPVLDSDGSFFLVSKLTVDKSRWQQGNVFSCSVMHEALHNHYTQKSLSLSPGK
light 2: SIVMTQTPLSLSVTPGQPASISCKASQSVSSDVTWYLQKPGQSPQLLIYYVSEHYTGVPDRFSGSGYGTDFTLKISRVEAEDVGVYYCQQHHRFPLTFGQGTKLEIKRTVAAPSVFIFPPSDEQLKSGTASVVCLLNNFYPREAKVQWKVDNALQSGNSQESVTEQDSKDSTYSLSSTLTLSKADYEKHKVYACEVTHQGLSSPVTKSFNRGEC
B4: HJ-7 (bispecific antibody, human IgG1, kappa, L234A L235A)
heavy 1: not shown
light 1: DIQMTQSPSSVSASVGDRVTITCRASQDIANYLSWYQQKPGKSPKLLIYGTSNLEVGVPSRFSGSRSGTDFTLTISSLQPEDFATYYCLQDKEFPRTFGGGTKVEIKGGGGSSGAPRFLTRPKASVVSVGKDATLSCQIVGNPFPQVSWEKDKQPVTAGVRFRLAQDGDLYRLKILDLQLSDSGQYVCRARNAHGEAFACLGLQVDAEA
heavy 2: EVQLVQSGAEVKKPGSSVKVSCKASGYTFSNYLIEWVRQAPGQGLEWIGVIDPGVGDTNYNENFKGRATLTADKSTSTAYIELSSLRSEDTAVYYCAREDNTGTAFDYWGQGTTVTVSSASTKGPSVFPLAPSSKSTSGGTAALGCLVKDYFPEPVTVSWNSGALTSGVHTFPAVLQSSGLYSLSSVVTVPSSSLGTQTYICNVNHKPSNTKVDKKVEPKSCDKTHTCPPCPAPEAAGGPSVFLFPPKPKDTLMISRTPEVTCVVVDVSHEDPEVKFNWYVDGVEVHNAKTKPREEQYNSTYRVVSVLTVLHQDWLNGKEYKCKVSNKALPAPIEKTISKAKGQPREPQVCTLPPSREEMTKNQVSLSCAVKGFYPSDIAVEWESNGQPENNYKTTPPVLDSDGSFFLVSKLTVDKSRWQQGNVFSCSVMHEALHNHYTQKSLSLSPGK
light 2: SIVMTQTPLSLSVTPGQPASISCKASQSVSSDVTWYLQKPGQSPQLLIYYVSEHYTGVPDRFSGSGYGTDFTLKISRVEAEDVGVYYCQQHHRFPLTFGQGTKLEIKRTVAAPSVFIFPPSDEQLKSGTASVVCLLNNFYPREAKVQWKVDNALQSGNSQESVTEQDSKDSTYSLSSTLTLSKADYEKHKVYACEVTHQGLSSPVTKSFNRGEC
B5: HJ-10 (bispecific antibody, human IgG1, kappa, L234A L235A)
heavy 1: not shown
light 1: DIQMTQSPSSVSASVGDRVTITCRASQDIANYLSWYQQKPGKSPKLLIYGTSNLEVGVPSRFSGSRSGTDFTLTISSLQPEDFATYYCLQDKEFPRTFGGGTKVEIKRTVASSGAPRFLTRPKASVVSVGKDATLSCQIVGNPFPQVSWEKDKQPVTAGVRFRLAQDGDLYRLKILDLQLSDSGQYVCRARNAHGEAFACLGLQVDAEA
heavy 2: EVQLVQSGAEVKKPGSSVKVSCKASGYTFSNYLIEWVRQAPGQGLEWIGVIDPGVGDTNYNENFKGRATLTADKSTSTAYIELSSLRSEDTAVYYCAREDNTGTAFDYWGQGTTVTVSSASTKGPSVFPLAPSSKSTSGGTAALGCLVKDYFPEPVTVSWNSGALTSGVHTFPAVLQSSGLYSLSSVVTVPSSSLGTQTYICNVNHKPSNTKVDKKVEPKSCDKTHTCPPCPAPEAAGGPSVFLFPPKPKDTLMISRTPEVTCVVVDVSHEDPEVKFNWYVDGVEVHNAKTKPREEQYNSTYRVVSVLTVLHQDWLNGKEYKCKVSNKALPAPIEKTISKAKGQPREPQVCTLPPSREEMTKNQVSLSCAVKGFYPSDIAVEWESNGQPENNYKTTPPVLDSDGSFFLVSKLTVDKSRWQQGNVFSCSVMHEALHNHYTQKSLSLSPGK
light 2: SIVMTQTPLSLSVTPGQPASISCKASQSVSSDVTWYLQKPGQSPQLLIYYVSEHYTGVPDRFSGSGYGTDFTLKISRVEAEDVGVYYCQQHHRFPLTFGQGTKLEIKRTVAAPSVFIFPPSDEQLKSGTASVVCLLNNFYPREAKVQWKVDNALQSGNSQESVTEQDSKDSTYSLSSTLTLSKADYEKHKVYACEVTHQGLSSPVTKSFNRGEC
B6: HJ-9 (bispecific antibody, human IgG1, kappa, L234A L235A)
heavy 1: not shown
light 1: DIQMTQSPSSVSASVGDRVTITCRASQDIANYLSWYQQKPGKSPKLLIYGTSNLEVGVPSRFSGSRSGTDFTLTISSLQPEDFATYYCLQDKEFPRTFGGGTKVEIKRTVASSGAPRFLTCPKASVVSVGKDATLSSQIVGNPFPQVSWEKDKQPVTAGVRFRLAQDGDLYRLKILDLQLSDSGQYVSRARNAHGEAFACLGLQVDAEA
heavy 2: EVQLVQSGAEVKKPGSSVKVSCKASGYTFSNYLIEWVRQAPGQGLEWIGVIDPGVGDTNYNENFKGRATLTADKSTSTAYIELSSLRSEDTAVYYCAREDNTGTAFDYWGQGTTVTVSSASTKGPSVFPLAPSSKSTSGGTAALGCLVKDYFPEPVTVSWNSGALTSGVHTFPAVLQSSGLYSLSSVVTVPSSSLGTQTYICNVNHKPSNTKVDKKVEPKSCDKTHTCPPCPAPEAAGGPSVFLFPPKPKDTLMISRTPEVTCVVVDVSHEDPEVKFNWYVDGVEVHNAKTKPREEQYNSTYRVVSVLTVLHQDWLNGKEYKCKVSNKALPAPIEKTISKAKGQPREPQVCTLPPSREEMTKNQVSLSCAVKGFYPSDIAVEWESNGQPENNYKTTPPVLDSDGSFFLVSKLTVDKSRWQQGNVFSCSVMHEALHNHYTQKSLSLSPGK
light 2: SIVMTQTPLSLSVTPGQPASISCKASQSVSSDVTWYLQKPGQSPQLLIYYVSEHYTGVPDRFSGSGYGTDFTLKISRVEAEDVGVYYCQQHHRFPLTFGQGTKLEIKRTVAAPSVFIFPPSDEQLKSGTASVVCLLNNFYPREAKVQWKVDNALQSGNSQESVTEQDSKDSTYSLSSTLTLSKADYEKHKVYACEVTHQGLSSPVTKSFNRGEC
B7: HJ-5 (bispecific antibody, human IgG1, kappa, L234A L235A)
heavy 1: not shown
light 1: DIQMTQSPSSVSASVGDRVTITCRASQDIANYLSWYQQKPGKSPKLLIYGTSNLEVGVPSRFSGSRSGTDFTLTISSLQPEDFATYYCLQDKEFPRTFGGGTKVEIKGGGGSSGAPRFLTRPKASVVSVGKDATLSSQIVGNPFPQVSWEKDKQPVTAGVRFRLAQDGDLYRLKILDLQLSDSGQYVSRARNAHGEAFACLGLQVDAEA
heavy 2: EVQLVQSGAEVKKPGSSVKVSCKASGYTFSNYLIEWVRQAPGQGLEWIGVIDPGVGDTNYNENFKGRATLTADKSTSTAYIELSSLRSEDTAVYYCAREDNTGTAFDYWGQGTTVTVSSASTKGPSVFPLAPSSKSTSGGTAALGCLVKDYFPEPVTVSWNSGALTSGVHTFPAVLQSSGLYSLSSVVTVPSSSLGTQTYICNVNHKPSNTKVDKKVEPKSCDKTHTCPPCPAPEAAGGPSVFLFPPKPKDTLMISRTPEVTCVVVDVSHEDPEVKFNWYVDGVEVHNAKTKPREEQYNSTYRVVSVLTVLHQDWLNGKEYKCKVSNKALPAPIEKTISKAKGQPREPQVCTLPPSREEMTKNQVSLSCAVKGFYPSDIAVEWESNGQPENNYKTTPPVLDSDGSFFLVSKLTVDKSRWQQGNVFSCSVMHEALHNHYTQKSLSLSPGK
light 2: SIVMTQTPLSLSVTPGQPASISCKASQSVSSDVTWYLQKPGQSPQLLIYYVSEHYTGVPDRFSGSGYGTDFTLKISRVEAEDVGVYYCQQHHRFPLTFGQGTKLEIKRTVAAPSVFIFPPSDEQLKSGTASVVCLLNNFYPREAKVQWKVDNALQSGNSQESVTEQDSKDSTYSLSSTLTLSKADYEKHKVYACEVTHQGLSSPVTKSFNRGEC

Legend:
[1] = target: T1, hIL-5 (human, UniProt P05113 20-134); assay: ELISA
T1 construct: bought
Procedure: (§1) For an antibody targeting a soluble protein, the binding activity of the antibody against the soluble protein was detected by ELISA. […] After the blocking was completed, the blocking solution was discarded; and the plate was washed 3 times with a PBST buffer (pH 7.4, PBS containing 0.1% tween-20). 100 μL of the antibody solution diluted in a gradient was added to each well, and the mixture was incubated at 37° C. for 1 h. After the incubation was completed, the plate was washed 3 times with PBST.

[2] = target: T2, hTSLP (human, UniProt Q969D9 29-159); assay: ELISA
T2 construct: bought
Procedure: as §1

Binder | EC50 [1] [nM] | EC50 [2] [nM]
B1 | 17.4 | 3.23
B2 | 18.7 | 3.33
B3 | 37 | 2.88
B4 | 17.7 | 2.18
B5 | 20.8 | 3.17
B6 | 10.9 | 3.18
B7 | 16 | 2.64
